Assay results: patent US20220016257A1 (Daiichi Sankyo, published 2022)
Changes are numbered by the printed parent chain.

T1: cynomolgus monkey CDH6 (full-length, on cells) (cynomolgus monkey, UniProt P55285 54-790 (human entry))
T1 construct: Expressed from pcDNA3.1-cynoCDH6 on transfected cells; also called cynoCDH6
T1 sequence: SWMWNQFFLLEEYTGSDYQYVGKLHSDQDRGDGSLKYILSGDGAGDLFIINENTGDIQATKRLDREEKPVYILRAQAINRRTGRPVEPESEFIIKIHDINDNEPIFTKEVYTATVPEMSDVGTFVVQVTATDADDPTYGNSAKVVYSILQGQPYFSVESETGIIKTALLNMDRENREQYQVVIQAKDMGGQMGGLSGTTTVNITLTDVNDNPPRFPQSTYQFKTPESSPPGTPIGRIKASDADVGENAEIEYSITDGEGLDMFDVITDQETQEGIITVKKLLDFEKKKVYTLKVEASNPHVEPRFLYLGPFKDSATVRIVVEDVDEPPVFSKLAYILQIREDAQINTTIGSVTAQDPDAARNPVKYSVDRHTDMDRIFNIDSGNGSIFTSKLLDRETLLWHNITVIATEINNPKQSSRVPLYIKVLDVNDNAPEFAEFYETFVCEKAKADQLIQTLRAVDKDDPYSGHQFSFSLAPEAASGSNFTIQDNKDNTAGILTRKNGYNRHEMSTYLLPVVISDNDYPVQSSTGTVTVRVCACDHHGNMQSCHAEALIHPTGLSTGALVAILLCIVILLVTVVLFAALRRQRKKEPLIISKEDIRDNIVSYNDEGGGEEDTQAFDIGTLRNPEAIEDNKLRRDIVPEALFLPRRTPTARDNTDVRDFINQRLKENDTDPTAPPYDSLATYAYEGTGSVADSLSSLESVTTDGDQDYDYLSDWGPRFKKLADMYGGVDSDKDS

T2: human CDH6 (full-length, on cells) (human, UniProt P55285 54-790)
T2 construct: also called hCDH6; full-length hCDH6
T2 sequence: T1 sequence with H300Y, R457H, G707A

B1: rat anti-CDH6 monoclonal antibody rG019 (antibody, IgG2b, V domains shown)
VH: QVQLQQSGAELVKPGSSVKISCKASGYTFTRNFMHWIKQQPGNGLEWIGWIYCGDGETEYNQKFNGKATLTADRSSSTAYMELSRLTSEDSAVYFCARGVYGGFAGGYFDFWGQGVMVTVSS
VL: DIQMTQSPSLLSASVGDRVTLNCKASQNIYKNLAWYQQKLGEGPKLLIYDANTLQTGIPSRFSGSGSGSDFTLTISSLQPEDVATYFCQQYYSGWAFGGVTNLELKRA
notes: Rat antibody purified from hybridoma supernatant; also called rG019 antibody; clone rG019
B2: humanized anti-CDH6 antibody H02L02 (antibody, human IgG1, kappa, V domains shown)
VH: EVQLVQSGAEVKKPGASVKVSCKASGYTFTRNFMHWVRQAPGQGLEWMGWIYPGDGETEYNQKFQGRVTITADRSTSTAYMELSSLRSEDTAVYFCARGVYGGFAGGYFDFWGQGTLVTVSS
VL: DIQMTQSPSSLSASVGDRVTITCKASQNIYKNLAWYQQKPGKAPKLLIYDANTLQTGVPSRFSGSGSGSDFTLTISSLQPEDFATYFCQQYYSGWAFGQGTKVEIKR
notes: hH02 heavy chain and hL02 light chain, human IgG1/kappa; also called H02L02 antibody; humanized hG019
B3: humanized anti-CDH6 antibody H01L02 (antibody, human IgG1, kappa)
heavy: not shown
light: DIQMTQSPSSLSASVGDRVTITCKASQNIYKNLAWYQQKPGKAPKLLIYDANTLQTGVPSRFSGSGSGSDFTLTISSLQPEDFATYFCQQYYSGWAFGQGTKVEIKRTVAAPSVFIFPPSDEQLKSGTASVVCLLNNFYPREAKVQWKVDNALQSGNSQESVTEQDSKDSTYSLSSTLTLSKADYEKHKVYACEVTHQGLSSPVTKSFNRGEC
notes: hH01 heavy chain and hL02 light chain, human IgG1/kappa; also called H01L02 antibody; humanized hG019
B4: humanized anti-CDH6 antibody H02L03 (antibody, human IgG1, kappa, V domains shown)
VH: B2 VH
VL: B2 VL with P40L, K42E, A43G, S69T, F87Y
notes: hH02 heavy chain and hL03 light chain, human IgG1/kappa; also called H02L03 antibody; humanized hG019
B5: humanized anti-CDH6 antibody H04L02 (antibody, human IgG1, kappa, V domains shown)
VH: B2 VH with E1Q, V37I, N61A, I70L, F95Y
VL: B2 VL
notes: hH04 heavy chain and hL02 light chain, human IgG1/kappa; also called H04L02 antibody; humanized hG019

Columns and labels:
[1] = target: T1, cynomolgus monkey CDH6 (full-length, on …); assay: Cell-ELISA and flow cytometry screening of hybridoma supernatants on transfected cells
Procedure: A coloring reaction was carried out with occasional stirring. Thereafter, 1 M HCl was added to the plate (100 μL/well) to terminate the coloring reaction, followed by measurement of the absorbance at 490 nm using a plate reader (ENVISION: PerkinElmer, Inc.).
The obtained cell suspension was used in flow cytometry analysis.
The binding specificity to cynomolgus monkey CDH6 of an antibody produced from the human CDH6- and cynomolgus monkey CDH6-binding antibody-producing hybridomas that had been selected by Cell-ELISA in Example 1)-4 was further confirmed by flow cytometry. […] Thereafter, the cells were suspended by the addition of the culture supernatant from each hybridoma. The cells were left standing at 4° C. for 1 hour. The cells were washed twice with PBS supplemented with 5% FBS, and thereafter, the cells were suspended by the addition of Anti-Rat IgG FITC conjugate (Sigma-Aldrich Co. LLC) that had been 500-fold diluted with PBS supplemented with 5% FBS. The cells were left standing at 4° C. for 1 hour. The cells were washed twice with PBS supplemented with 5% FBS, and then re-suspended in PBS supplemented with 5% FBS and 2 μg/ml 7-aminoactinomycin D (Molecular Probes, Inc.), followed by detection using a flow cytometer (FC500; Beckman Coulter, Inc.).

[2] = target: T2, human CDH6 (full-length, on cells); assay: competition flow cytometry on 786-O/hCDH6 cells, unlabeled antibody varied, competitor Alexa488-labeled H01L02 at 5 nM [lower panel]
Procedure: The cell suspension of the 786-O/hCDH6 stably expressing cell line produced in 6)-2-2-1 was centrifuged, and the supernatant was then removed. Thereafter, the cells were suspended by the addition of labeled NOV0712 or labeled H01L02 (final concentration: 5 nM) and, further, the addition of each of the 4 humanized hG019 antibodies (clone Nos: H01L02, H02L02, H02L03 and H04L02), which had been prepared in Example 5)-5-3, or the anti-CDH6 antibody NOV0712, which had been prepared in Reference Example 1, or human IgG1 (Calbiochem) as a negative control (final concentration: as shown in the abscissa of FIG. 7). The cells were left standing at 4° C. for 1 hour. Thereafter, the cells were washed twice with PBS supplemented with 5% FBS, followed by detection using a flow cytometer (Canto II; BD Biosciences). The data was analyzed using FlowJo (TreeStar, Inc.). The abscissa depicts the final concentration of the added unlabeled antibody, and the ordinate depicts the amount of the antibody bound based on mean fluorescence intensity. When unlabeled NOV0712 is added to cells supplemented with labeled NOV0712, the amount of the labeled antibody bound is decreased by replacement with the unlabeled antibody in an addition concentration-dependent manner because they compete with each other for binding to the same epitope. […] Likewise, when each of the 4 unlabeled humanized hG019 antibodies is added to cells supplemented with labeled H01L02, the amount of the labeled antibody bound is decreased by replacement with the unlabeled antibody in an addition concentration-dependent manner because they compete with each other for binding to the same epitope.

Row | Binder | binding result [1] | IC50 (read off the curve) [2] [nM]
1 | B1 | binds | 
2 | B2 |  | ~3
3 | B3 |  | ~5
4 | B4 |  | ~10
5 | B5 |  | ~10
